Measurements published in patent US20180236141A1.

Target: integrin α2β1 on platelets (UniProt P17301)
Experiment: cell-based or functional assay

Substance: Collagen type I (ligand)
- platelet aggregation: > 90%
